Experimental data reported in US20240301068A1 (BEIJING HANMI PHARMACEUTICAL, published 2024).

Each binder was assayed against recombinant human PD-L1 (Sino Biological Inc.) (human, UniProt Q9NZQ7 19-239) (assay: affinity determination (dissociation constant), method not stated).
Chain of recombinant human PD-L1 (Sino Biological Inc.) (Q9NZQ7 19-239 limits assumed): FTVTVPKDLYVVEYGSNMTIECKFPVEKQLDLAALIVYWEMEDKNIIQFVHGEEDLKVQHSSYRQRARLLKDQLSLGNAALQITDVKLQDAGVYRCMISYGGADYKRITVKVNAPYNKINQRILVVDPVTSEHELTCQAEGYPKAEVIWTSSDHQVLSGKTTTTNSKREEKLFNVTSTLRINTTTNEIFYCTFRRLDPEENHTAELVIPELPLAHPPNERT

Binder | koff [s⁻¹]
humanized anti-human PD-L1 monoclonal antibody VLS9-VHS1 (antibody, human IgG1, kappa, V domains shown) VH: QVQLVQSGAEVKKPGSSVKVSCTASGFNIEDTYIHWVRQAPGQGLEWMGRIDPANGNTKYDPKFQGRVTITADESTSTAYMELSSLRSEDTAVYYCGRGLGAWFAYWGQGTLVTVSS VL: DIQMTQSPSSLSASVGDRVTITCKASQDVHTAVAWYQQKPGKAPKLLIYSASNRYTGVPSRFSGSGSGTDFTFTISSLQPEDIATYYCQQHYITPLTFGQGTKLEIKR | 0.00597
humanized anti-human PD-L1 monoclonal antibody VLS15-VHS11 (antibody, human IgG1, kappa, V domains shown) VH: EVQLVQSGAEVKKPGSSVKVSCKASGFNIEDTYIHWVRQAPGQGLEWMGRIDPANGNTKYDPKFQGRVTITADESTNTAYMELSSLRSEDTAVYYCGRGLGAWFAYWGQGTLVTVSS VL: DIQMTQSPSSLSASVGDRVTITCKASQDVHTAVAWIQQKPGKSPKLLIYSASNRYTGVPSRFSGSGSGTDFTFTISSLQPEDIATYYCQQHYITPLTFGQGTKLEIKR | 0.000841
humanized anti-human PD-L1 monoclonal antibody VLS10-VHS1 (antibody, human IgG1, kappa, V domains shown) VH: QVQLVQSGAEVKKPGSSVKVSCTASGFNIEDTYIHWVRQAPGQGLEWMGRIDPANGNTKYDPKFQGRVTITADESTSTAYMELSSLRSEDTAVYYCGRGLGAWFAYWGQGTLVTVSS VL: DIQMTQSPSSLSASVGDRVTITCKASQDVHTAVAWIHQKPGKAPKLLIYSASNRYTGVPSRFSGSGSGTDFTFTISSLQPEDIATYYCQQHYITPLTFGQGTKLEIKR | 0.00424
humanized anti-human PD-L1 monoclonal antibody VLS9-VHS6 (antibody, human IgG1, kappa, V domains shown) VH: QVQLVQSGAEVKKPGSSVKVSCTASGFNIEDTYIHWVRQAPGQGLEWMGRIDPANGNTKYDPKFQGRATITADESTNTAYMELSSLRSEDTAVYYCGRGLGAWFAYWGQGTLVTVSS VL: DIQMTQSPSSLSASVGDRVTITCKASQDVHTAVAWYQQKPGKAPKLLIYSASNRYTGVPSRFSGSGSGTDFTFTISSLQPEDIATYYCQQHYITPLTFGQGTKLEIKR | 0.00618
humanized anti-human PD-L1 monoclonal antibody VLS10-VHS4 (antibody, human IgG1, kappa, V domains shown) VH: QVQLVQSGAEVKKPGSSVKVSCTASGFNIEDTYIHWVRQAPGQGLEWMGRIDPANGNTKYDPKFQGRVTITADESTNTAYMELSSLRSEDTAVYYCGRGLGAWFAYWGQGTLVTVSS VL: DIQMTQSPSSLSASVGDRVTITCKASQDVHTAVAWIHQKPGKAPKLLIYSASNRYTGVPSRFSGSGSGTDFTFTISSLQPEDIATYYCQQHYITPLTFGQGTKLEIKR | 0.00156
humanized anti-human PD-L1 monoclonal antibody VLS10-VHS6 (antibody, human IgG1, kappa, V domains shown) VH: QVQLVQSGAEVKKPGSSVKVSCTASGFNIEDTYIHWVRQAPGQGLEWMGRIDPANGNTKYDPKFQGRATITADESTNTAYMELSSLRSEDTAVYYCGRGLGAWFAYWGQGTLVTVSS VL: DIQMTQSPSSLSASVGDRVTITCKASQDVHTAVAWIHQKPGKAPKLLIYSASNRYTGVPSRFSGSGSGTDFTFTISSLQPEDIATYYCQQHYITPLTFGQGTKLEIKR | 0.00121
humanized anti-human PD-L1 monoclonal antibody VLS10-VHS3 (antibody, human IgG1, kappa, V domains shown) VH: QVQLVQSGAEVKKPGSSVKVSCTASGFNIEDTYIHWVRQAPGQGLEWMGRIDPANGNTKYDPKFQGRVTITADTSTSTAYMELSSLRSEDTAVYYCGRGLGAWFAYWGQGTLVTVSS VL: DIQMTQSPSSLSASVGDRVTITCKASQDVHTAVAWIHQKPGKAPKLLIYSASNRYTGVPSRFSGSGSGTDFTFTISSLQPEDIATYYCQQHYITPLTFGQGTKLEIKR | 0.00121
humanized anti-human PD-L1 monoclonal antibody VLS10-VHS2 (antibody, human IgG1, kappa, V domains shown) VH: QVQLVQSGAEVKKPGSSVKVSCTASGFNIEDTYIHWVRQAPGQGLEWMGRIDPANGNTKYDPKFQGRATITADESTSTAYMELSSLRSEDTAVYYCGRGLGAWFAYWGQGTLVTVSS VL: DIQMTQSPSSLSASVGDRVTITCKASQDVHTAVAWIHQKPGKAPKLLIYSASNRYTGVPSRFSGSGSGTDFTFTISSLQPEDIATYYCQQHYITPLTFGQGTKLEIKR | 0.00325
humanized anti-human PD-L1 monoclonal antibody VLS10-VHS5 (antibody, human IgG1, kappa, V domains shown) VH: QVQLVQSGAEVKKPGSSVKVSCTASGFNIEDTYIHWVRQAPGQGLEWMGRIDPANGNTKYDPKFQGRATITADTSTSTAYMELSSLRSEDTAVYYCGRGLGAWFAYWGQGTLVTVSS VL: DIQMTQSPSSLSASVGDRVTITCKASQDVHTAVAWIHQKPGKAPKLLIYSASNRYTGVPSRFSGSGSGTDFTFTISSLQPEDIATYYCQQHYITPLTFGQGTKLEIKR | 0.000994
humanized anti-human PD-L1 monoclonal antibody VLS9-VHS2 (antibody, human IgG1, kappa, V domains shown) VH: QVQLVQSGAEVKKPGSSVKVSCTASGFNIEDTYIHWVRQAPGQGLEWMGRIDPANGNTKYDPKFQGRATITADESTSTAYMELSSLRSEDTAVYYCGRGLGAWFAYWGQGTLVTVSS VL: DIQMTQSPSSLSASVGDRVTITCKASQDVHTAVAWYQQKPGKAPKLLIYSASNRYTGVPSRFSGSGSGTDFTFTISSLQPEDIATYYCQQHYITPLTFGQGTKLEIKR | 0.00599
humanized anti-human PD-L1 monoclonal antibody VLS10-VHS8 (antibody, human IgG1, kappa, V domains shown) VH: QVQLVQSGAEVKKPGSSVKVSCTASGFNIEDTYIHWVRQAPGQGLEWMGRIDPANGNTKYDPKFQGRATITADTSTNTAYMELSSLRSEDTAVYYCGRGLGAWFAYWGQGTLVTVSS VL: DIQMTQSPSSLSASVGDRVTITCKASQDVHTAVAWIHQKPGKAPKLLIYSASNRYTGVPSRFSGSGSGTDFTFTISSLQPEDIATYYCQQHYITPLTFGQGTKLEIKR | 0.000652
humanized anti-human PD-L1 monoclonal antibody VLS9-VHS7 (antibody, human IgG1, kappa, V domains shown) VH: QVQLVQSGAEVKKPGSSVKVSCTASGFNIEDTYIHWVRQAPGQGLEWMGRIDPANGNTKYDPKFQGRVTITADTSTNTAYMELSSLRSEDTAVYYCGRGLGAWFAYWGQGTLVTVSS VL: DIQMTQSPSSLSASVGDRVTITCKASQDVHTAVAWYQQKPGKAPKLLIYSASNRYTGVPSRFSGSGSGTDFTFTISSLQPEDIATYYCQQHYITPLTFGQGTKLEIKR | 0.0058

Next, values leading:

koff [s⁻¹] | Binder
0.000763 | humanized anti-human PD-L1 monoclonal antibody VLS15-VHS13 (antibody, human IgG1, kappa, V domains shown) VH: EVQLVQSGAEVKKPGSSVKVSCKASGFNIEDTYIHWVRQAPGQGLEWIGRIDPANGNTKYDPKFQGRATITADESTNTAYMELSSLRSEDTAVYYCGRGLGAWFAYWGQGTLVTVSS VL: DIQMTQSPSSLSASVGDRVTITCKASQDVHTAVAWIQQKPGKSPKLLIYSASNRYTGVPSRFSGSGSGTDFTFTISSLQPEDIATYYCQQHYITPLTFGQGTKLEIKR
0.00532 | humanized anti-human PD-L1 monoclonal antibody VLS9-VHS8 (antibody, human IgG1, kappa, V domains shown) VH: QVQLVQSGAEVKKPGSSVKVSCTASGFNIEDTYIHWVRQAPGQGLEWMGRIDPANGNTKYDPKFQGRATITADTSTNTAYMELSSLRSEDTAVYYCGRGLGAWFAYWGQGTLVTVSS VL: DIQMTQSPSSLSASVGDRVTITCKASQDVHTAVAWYQQKPGKAPKLLIYSASNRYTGVPSRFSGSGSGTDFTFTISSLQPEDIATYYCQQHYITPLTFGQGTKLEIKR
0.00544 | humanized anti-human PD-L1 monoclonal antibody VLS9-VHS4 (antibody, human IgG1, kappa, V domains shown) VH: QVQLVQSGAEVKKPGSSVKVSCTASGFNIEDTYIHWVRQAPGQGLEWMGRIDPANGNTKYDPKFQGRVTITADESTNTAYMELSSLRSEDTAVYYCGRGLGAWFAYWGQGTLVTVSS VL: DIQMTQSPSSLSASVGDRVTITCKASQDVHTAVAWYQQKPGKAPKLLIYSASNRYTGVPSRFSGSGSGTDFTFTISSLQPEDIATYYCQQHYITPLTFGQGTKLEIKR
0.0052 | humanized anti-human PD-L1 monoclonal antibody VLS9-VHS3 (antibody, human IgG1, kappa, V domains shown) VH: QVQLVQSGAEVKKPGSSVKVSCTASGFNIEDTYIHWVRQAPGQGLEWMGRIDPANGNTKYDPKFQGRVTITADTSTSTAYMELSSLRSEDTAVYYCGRGLGAWFAYWGQGTLVTVSS VL: DIQMTQSPSSLSASVGDRVTITCKASQDVHTAVAWYQQKPGKAPKLLIYSASNRYTGVPSRFSGSGSGTDFTFTISSLQPEDIATYYCQQHYITPLTFGQGTKLEIKR
0.000452 | humanized anti-human PD-L1 monoclonal antibody VLS15-VHS14 (antibody, human IgG1, kappa, V domains shown) VH: EVQLVQSGAEVKKPGSSVKVSCKASGFNIEDTYIHWVRQAPGQGLEWIGRIDPANGNTKYDPKFQGRATITADTSTNTAYMELSSLRSEDTAVYYCGRGLGAWFAYWGQGTLVTVSS VL: DIQMTQSPSSLSASVGDRVTITCKASQDVHTAVAWIQQKPGKSPKLLIYSASNRYTGVPSRFSGSGSGTDFTFTISSLQPEDIATYYCQQHYITPLTFGQGTKLEIKR
0.00438 | humanized anti-human PD-L1 monoclonal antibody VLS9-VHS5 (antibody, human IgG1, kappa, V domains shown) VH: QVQLVQSGAEVKKPGSSVKVSCTASGFNIEDTYIHWVRQAPGQGLEWMGRIDPANGNTKYDPKFQGRATITADTSTSTAYMELSSLRSEDTAVYYCGRGLGAWFAYWGQGTLVTVSS VL: DIQMTQSPSSLSASVGDRVTITCKASQDVHTAVAWYQQKPGKAPKLLIYSASNRYTGVPSRFSGSGSGTDFTFTISSLQPEDIATYYCQQHYITPLTFGQGTKLEIKR
